Changes are numbered by the printed parent chain. Names and notes keep the numbering of the source.
B1: RlArDHT (L-arabinonate dehydratase from Rhizobium leguminosarum bv. trifolii) (Rhizobium leguminosarum bv. trifolii WSM2304) (protein)
chain: MKKKAEWPRKLRSQEWYGGTSRDVIYHRGWLKNQGYPHDLFDGRPVIGILNTWSDMTPCNGHLRELAEKVKAGVWEAGGFPLEVPVFSASENTFRPTAMMYRNLAALAVEEAIRGQPMDGCVLLVGCDKTTPSLLMGAASCDLPSIVVTGGPMLNGYFRGERVGSGTHLWKFSEMVKAGEMTQAEFLEAEASMSRSSGTCNTMGTASTMASMAEALGMALSGNAAIPGVDSRRKVMAQLTGRRIVQMVKDDLKPSEIMTKQAFENAIRTNAAIGGSTNAVIHLLAIAGRVGIDLSLDDWDRCGRDVPTIVNLMPSGKYLMEEFFYAGGLPVVLKRLGEAGLLHKDALTVSGETVWDEVKDVVNWNEDVILPAEKALTSSGGIVVLRGNLAPKGAVLKPSAASPHLLVHKGRAVVFEDIDDYKAKINDDNLDIDENCIMVMKNCGPKGYPGMAEVGNMGLPPKVLKKGILDMVRISDARMSGTAYGTVVLHTSPEAAVGGPLAVVKNGDMIELDVPNRRLHLDISDEELARRLAEWQPNHDLPTSGYAFLHQQHVEGADTGADLDFLKGCRGNAVGKDSH
notes: full length with N-terminal Strep-tag II (WSHPQFEK), codon-optimized, pBAT4, E. coli BL21(DE3); 579 residues without tag; [2Fe-2S] and Mg2+; homotetramer
B2: L-arabinonate dehydratase from Rhizobium leguminosarum bv. trifolii, variant H579L (enzyme, UniProt B5ZZ34 1-579, looked up)
chain: B1 chain with H579L
modifications: KCX129 (6N-carboxylysine)
notes: L-arabinonate dehydratase (RlArDHT) from Rhizobium leguminosarum bv. trifolii, gene araD, GenBank KT260159, codon-optimised synthetic gene; His579 is the last C-terminal residue, changed to Leu; Holds a [2Fe-2S] cluster and Mg2+ in each chain; co-crystallised with 2-oxobutyrate (seen in chain D only); The introduction calls the same variant H588L, which may count the N-terminal tag residues; also …
B3: RlArDHT (L-arabinonate dehydratase from Rhizobium leguminosarum bv. trifolii) (Rhizobium leguminosarum bv. trifolii WSM2304; H579L) (protein)
chain: B1 chain with H579L
notes: as for B1

Assays:
[1] = target: T1, RlArDHT (L-arabinonate dehydratase from Rhizobium leguminosarum bv. trifolii) (Rhizobium leguminosarum, UniProt B5ZZ34, H579L); assay: X-ray crystal structure, […] Å, co-crystallized; type: binding; details: product analog; active site of chain D, coordinated to Mg2+; [2Fe-2S] present; pH 8.5, 20 °C
T1 construct: gene araD; full length with N-terminal Strep-tag II (WSHPQFEK), codon-optimized, pBAT4, E. coli BL21(DE3); 579 residues without tag; [2Fe-2S] and Mg2+; homotetramer
T1 sequence (B5ZZ34 whole entry H579L): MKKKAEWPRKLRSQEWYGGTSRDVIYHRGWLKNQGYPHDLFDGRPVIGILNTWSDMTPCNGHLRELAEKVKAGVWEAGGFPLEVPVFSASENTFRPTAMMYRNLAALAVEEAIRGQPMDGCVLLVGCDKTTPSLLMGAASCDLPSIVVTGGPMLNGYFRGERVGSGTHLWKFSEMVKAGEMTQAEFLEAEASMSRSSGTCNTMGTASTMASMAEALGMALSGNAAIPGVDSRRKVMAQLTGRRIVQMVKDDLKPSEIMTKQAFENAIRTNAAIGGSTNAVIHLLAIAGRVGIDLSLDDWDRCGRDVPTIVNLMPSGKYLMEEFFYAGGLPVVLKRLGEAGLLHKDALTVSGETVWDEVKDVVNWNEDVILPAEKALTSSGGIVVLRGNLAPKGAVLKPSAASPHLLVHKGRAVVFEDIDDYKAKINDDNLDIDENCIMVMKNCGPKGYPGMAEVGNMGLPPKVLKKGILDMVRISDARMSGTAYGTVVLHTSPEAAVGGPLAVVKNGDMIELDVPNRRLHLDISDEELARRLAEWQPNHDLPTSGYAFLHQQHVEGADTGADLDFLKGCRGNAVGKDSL

purified protein [2] = substrate: O=C(O)[C@H](O)[C@@H](O)[C@H](O)[C@H](O)CO; assay: purified protein; type: biochemical, Rhizobium leguminosarum; details: pH 8.0, 30 °C, 50 mM Tris-HCl, 10 mM MgCl2
purified protein [3] = substrate: O=C(O)[C@H](O)[C@@H](O)[C@H](O)CO; assay: purified protein; type: biochemical, Rhizobium leguminosarum; details: pH 8.0, 30 °C, 50 mM Tris-HCl, 10 mM MgCl2
purified protein [4] = substrate: O=C(O)[C@H](O)[C@@H](O)[C@@H](O)CO; assay: purified protein; type: biochemical, Rhizobium leguminosarum; details: pH 8.0, 30 °C, 50 mM Tris-HCl, 10 mM MgCl2
purified protein [5] = substrate: O=C(O)[C@H](O)[C@@H](O)[C@@H](O)[C@H](O)CO; assay: purified protein; type: biochemical, Rhizobium leguminosarum; details: pH 8.0, 30 °C, 50 mM Tris-HCl, 10 mM MgCl2
purified protein [6] = substrate: C[C@@H](O)[C@H](O)[C@H](O)[C@@H](O)C(=O)O; assay: purified protein; type: biochemical, Rhizobium leguminosarum; details: pH 8.0, 30 °C, 50 mM Tris-HCl, 10 mM MgCl2
[7] = target: the molecule itself; assay: crystal structure; H579L co-crystallised with 2-oxobutyrate, hanging-drop vapor diffusion at 20 °C; 14% (w/v) PEG 10000, 200 mM ammonium acetate, 100 mM Tris pH 8.5; molecular replacement with PDB 5J84

| Molecule | X-ray crystal structure, 2.4 Å, co-crystallized [1] | Km (purified protein [2]) [µM] | kcat (purified protein [2]) [s⁻¹] | kcat/Km (purified protein [2]) [M⁻¹ s⁻¹] | Km (purified protein [3]) [µM] | kcat (purified protein [3]) [s⁻¹] | kcat/Km (purified protein [3]) [M⁻¹ s⁻¹] | Km (purified protein [4]) [µM] | kcat (purified protein [4]) [s⁻¹] | kcat/Km (purified protein [4]) [M⁻¹ s⁻¹] | Km (purified protein [5]) [µM] | kcat (purified protein [5]) [s⁻¹] | kcat/Km (purified protein [5]) [M⁻¹ s⁻¹] | Km (purified protein [6]) [µM] | kcat (purified protein [6]) [s⁻¹] | kcat/Km (purified protein [6]) [M⁻¹ s⁻¹] | stoichiometry N [7] |
| --- | --- | --- | --- | --- | --- | --- | --- | --- | --- | --- | --- | --- | --- | --- | --- | --- | --- |
| CCC(=O)C(=O)O [2-oxobutyrate] | 2-Oxobutyrate was refined inside the substrate-binding cavity in chain D of the H579L variant | – | – | – | – | – | – | – | – | – | – | – | – | – | – | – | – |
| B1 | – | 5700 ± 1500 | 6.5 ± 0.833 | 1130 ± 150 | 1300 ± 300 | 0.413 ± 0.0217 | 317 ± 66.7 | 1200 ± 200 | 11.3 ± 0.5 | 9500 ± 1170 | 740 ± 150 | 11.5 ± 0.5 | 15500 ± 2330 | 240 ± 70 | 17.5 ± 1 | 73300 ± 18300 | – |
| B2 | – | – | – | – | – | – | – | – | – | – | – | – | – | – | – | – | 4 |
| B3 | – | 5400 ± 900 | 0.667 ± 0.05 | 125 ± 11.7 | 1200 ± 200 | 0.107 ± 0.00333 | 88.3 ± 11.7 | 1000 ± 200 | 2 ± 0.0833 | 2000 ± 333 | 900 ± 150 | 1.48 ± 0.0667 | 1580 ± 183 | 820 ± 60 | 21.5 ± 0.5 | 26200 ± 1330 | – |

— paper PMC11316719, “Unveiling the importance of the C-terminus in the sugar acid dehydratase of the IlvD/EDD superfamily” (Applied Microbiology and Biotechnology, 2024)
